Assay results as given in the supplement of paper PMC11246515.
± gives the standard deviation of the averaged measurements.

Assay: total protein half-life in vivo (active degradation + dilution); higher = more stable protein
[1] = E. coli NCM3722 delta-clpP delta-lon delta-hslV, growth: N-lim chemostat, doubling time 6 h
[2] = E. coli NCM3722 delta-clpP, growth: N-lim chemostat, doubling time 6 h
[3] = E. coli NCM3722 delta-hslV, growth: N-lim chemostat, doubling time 6 h
[4] = E. coli NCM3722 delta-smpB, growth: N-lim chemostat, doubling time 6 h
[5] = wild type E. coli NCM3722, growth: C-lim chemostat, doubling time 3 h
[6] = wild type E. coli NCM3722, growth: C-lim chemostat, doubling time 12 h
[7] = wild type E. coli NCM3722, growth: N-lim chemostat, doubling time 6 h
[8] = wild type E. coli NCM3722, growth: N-lim chemostat, doubling time 12 h
[9] = wild type E. coli NCM3722, growth: P-lim chemostat, doubling time 6 h
[10] = wild type E. coli NCM3722, growth: P-lim chemostat, doubling time 12 h
[11] = wild type E. coli NCM3722, growth: C-lim chemostat, doubling time 6 h
[12] = E. coli NCM3722 delta-lon, growth: N-lim chemostat, doubling time 6 h

Row | Sequence | total protein half-life in vivo [1] [h] | total protein half-life in vivo [2] [h] | total protein half-life in vivo [3] [h] | total protein half-life in vivo [4] [h] | total protein half-life in vivo [5] [h] | total protein half-life in vivo [6] [h] | total protein half-life in vivo [7] [h] | total protein half-life in vivo [8] [h] | total protein half-life in vivo [9] [h] | total protein half-life in vivo [10] [h] | total protein half-life in vivo [11] [h] | total protein half-life in vivo [12] [h]
1 | MDTPRPQLLDFQFHQNNDSFTLHFQQRLILTHSKDNPCLWIGSGIADIDMFRGNFSIKDKLQEKIALTDAIVSQSPDGWLIHFSRGSDISATLNISADDQGRLLLELQNDNLNHNRIWLRLAAQPEDHIYGCGEQFSYFDLRGKPFPLWTSEQGVGRNKQTYVTWQADCKENAGGDYYWTFFPQPTFVSTQKYYCHVDNSCYMNFDFSAPEYHELALWEDKATLRFECADTYISLLEKLTALLGRQPELPDWIYDGVTLGIQGGTEVCQKKLDTMRNAGVKVNGIWAQDWSGIRMTSFGKRVMWNWKWNSENYPQLDSRIKQWNQEGVQFLAYINPYVASDKDLCEEAAQHGYLAKDASGGDYLVEFGEFYGGVVDLTNPEAYAWFKEVIKKNMIELGCGGWMADFGEYLPTDTYLHNGVSAEIMHNAWPALWAKCNYEALEETGKLGEILFFMRAGSTGSQKYSTMMWAGDQNVDWSLDDGLASVVPAALSLAMTGHGLHHSDIGGYTTLFEMKRSKELLLRWCDFSAFTPMMRTHEGNRPGDNWQFDGDAETIAHFARMTTVFTTLKPYLKEAVALNAKSGLPVMRPLFLHYEDDAHTYTLKYQYLLGRDILVAPVHEEGRSDWTLYLPEDNWVHAWTGEAFRGGEVTVNAPIGKPPVFYRADSEWAALFASLKSI | 5.5 | 4.66 ± 0.079 | 4.79 ± 0.52 | 4.78 ± 0.19 | 3.06 ± 0.37 | 12.6 ± 3.2 | 4.02 | 7.22 | 5.4 ± 0.092 | 10.4 ± 0.25 | – | –
2 | MDVQQFFVVAVFFLIPIFCFREAWKGWRAGAIDKRVKNAPEPVYVWRAKNPGLFFAYMVAYIGFGILSIGMIVYLIFYR | 2.64 | – | 3.67 | 4.42 | – | – | – | – | 4.74 | 8.43 | 1.84 | –
3 | MDWLAKYWWILVIVFLVGVLLNVIKDLKRVDHKKFLANKPELPPHRDFNDKWDDDDDWPKKDQPKK [Q2EET2] | 4.44 ± 0.075 | 4.57 ± 1.7 | – | 4.97 ± 0.94 | 3.28 ± 0.98 | 6.37 | 5.06 | 9.68 ± 5.2 | 3.81 | 7.42 ± 0.16 | 5.63 ± 0.88 | 5.94 ± 1.8
4 | MDYEFLRDITGVVKVRMSMGHEVVGHWFNEEVKENLALLDEVEQAAHALKGSERSWQRAGHEYTLWMDGEEVMVRANQLEFAGDEMEEGMNYYDEESLSLCGVEDFLQVVAAYRNFVQQK [P0A8E5] | 4.89 ± 0.087 | – | 1.63 ± 0.034 | 1.97 ± 0.039 | 2.18 ± 0.056 | 6.328 ± 0.025 | 1.78 | 2.8 | 2.44 ± 0.26 | 4.45 ± 0.61 | 3.78 ± 0.4 | 2 ± 0.21
5 | MDYFTLFGLPARYQLDTQALSLRFQDLQRQYHPDKFASGSQAEQLAAVQQSATINQAWQTLRHPLMRAEYLLSLHGFDLASEQHTVRDTAFLMEQLELREELDEIEQAKDEARLESFIKRVKKMFDTRHQLMVEQLDNETWDAAADTVRKLRFLDKLRSSAEQLEEKLLDF [P0A6L9] | 4.89 ± 0.7 | 3.99 ± 0.75 | 3.26 ± 0.27 | 3.04 ± 0.18 | 2.9 ± 0.23 | 9.84 ± 1 | 3.07 ± 0.24 | 4.57 ± 0.19 | 5.45 ± 0.78 | 9.39 ± 0.82 | 4.74 ± 0.099 | 4.06 ± 0.18
6 | MDYRKIIKEIGRGKNHARDLDRDTARGLYAHMLNGEVPDLELGGVLIALRIKGEGEAEMLGFYEAMQNHTIKLTPPAGKPMPIVIPSYNGARKQANLTPLLAILLHKLGFPVVVHGVSEDPTRVLTETIFELMGITPTLHGGQAQAKLDEHQPVFMPVGAFCPPLEKQLAMRWRMGVRNSAHTLAKLATPFAEGEALRLSSVSHPEYIGRVAKFFSDIGGRALLMHGTEGEVYANPQRCPQINLIDREGMRVLYEKQDTAGSELLPQAKDPETTAQWIERCLAGSEPIPESLKIQMACCLVATGEAATISDGLARVNQAF | 4.81 ± 0.7 | 4.14 ± 0.24 | 4.41 ± 0.12 | 4.44 ± 0.42 | 3.09 ± 0.67 | 9.72 ± 1.2 | 4.54 ± 0.17 | 7.03 ± 0.37 | 5.83 ± 0.098 | 11.7 ± 0.24 | 5.84 ± 0.53 | 5.22 ± 0.37
7 | MEAIKGSDVNVPDAVFAWMLDGRGGVKPLENTDVIDEAHPCWLHLNYVHHDSAQWLATTPLLPNNVRDALAGESTRPRVSRLGEGTLITLRCINGSTDERPDQLVAMRVYMDGRLIVSTRQRKVLALDDVVSDLEEGTGPTDCGGWLVDVCDALTDHSSEFIEQLHDKIIDLEDNLLDQQIPPRGFLALLRKQLIVMRRYMAPQRDVYARLASERLPWMSDDQRRRMQDIADRLGRGLDEIDACIARTGVMADEIAQVMQENLARRTYTMSLMAMVFLPSTFLTGLFGVNLGGIPGGGWQFGFSIFCILLVVLIGGVALWLHRSKWL | 6.29 ± 0.86 | 5.99 ± 0.61 | 5.56 ± 0.95 | 5.71 ± 0.2 | 3.06 ± 0.47 | 11.5 ± 0.33 | 6.07 ± 0.2 | 11.9 ± 0.9 | 5.31 ± 0.072 | 8.98 ± 0.42 | 6.04 ± 0.35 | 6.34 ± 0.75
8 | MEALLQLKGIDKAFPGVKALSGAALNVYPGRVMALVGENGAGKSTMMKVLTGIYTRDAGTLLWLGKETTFTGPKSSQEAGIGIIHQELNLIPQLTIAENIFLGREFVNRFGKIDWKTMYAEADKLLAKLNLRFKSDKLVGDLSIGDQQMVEIAKVLSFESKVIIMDEPTDALTDTETESLFRVIRELKSQGRGIVYISHRMKEIFEICDDVTVFRDGQFIAEREVASLTEDSLIEMMVGRKLEDQYPHLDKAPGDIRLKVDNLCGPGVNDVSFTLRKGEILGVSGLMGAGRTELMKVLYGALPRTSGYVTLDGHEVVTRSPQDGLANGIVYISEDRKRDGLVLGMSVKENMSLTALRYFSRAGGSLKHADEQQAVSDFIRLFNVKTPSMEQAIGLLSGGNQQKVAIARGLMTRPKVLILDEPTRGVDVGAKKEIYQLINQFKADGLSIILVSSEMPEVLGMSDRIIVMHEGHLSGEFTREQATQEVLMAAAVGKLNRVNQE | 6.58 ± 1.1 | 5.992 ± 0.012 | 6.14 ± 0.13 | 5.878 ± 0.015 | 3.11 ± 0.17 | 11.3 ± 2.2 | 5.96 ± 0.35 | 12.7 ± 0.54 | 6.499 ± 0.06 | 12.2 ± 0.6 | 6.04 ± 0.086 | 5.71 ± 0.28
9 | MEFTTGLMSLDTALNEMLSRVTPLTAQETLPLVQCFGRILASDVVSPLDVPGFDNSAMDGYAVRLADIASGQPLPVAGKSFAGQPYHGEWPAGTCIRIMTGAPVPEGCEAVVMQEQTEQMDNGVRFTAEVRSGQNIRRRGEDISAGAVVFPAGTRLTTAELPVIASLGIAEVPVIRKVRVALFSTGDELQLPGQPLGDGQIYDTNRLAVHLMLEQLGCEVINLGIIRDDPHALRAAFIEADSQADVVISSGGVSVGEADYTKTILEELGEIAFWKLAIKPGKPFAFGKLSNSWFCGLPGNPVSATLTFYQLVQPLLAKLSGNTASGLPARQRVRTASRLKKTPGRLDFQRGVLQRNADGELEVTTTGHQGSHIFSSFSLGNCFIVLERDRGNVEVGEWVEVEPFNALFGGL | – | – | 4.41 ± 0.22 | 4.88 ± 0.29 | 2.741 ± 0.013 | 11.1 ± 0.4 | 4.07 ± 0.22 | 7.4293 ± 0.003 | 5.64 ± 0.34 | 11.1 ± 1.6 | 4.96 ± 0.85 | 4.63 ± 0.21
10 | MEGSDFLLAGVLFLFAAVAAVPLASRLGIGAVLGYLLAGIAIGPWGLGFISDVDEILHFSELGVVFLMFIIGLELNPSKLWQLRRSIFGVGAAQVLLSAALLAGLLMLTDFAWQAAVVGGIGLAMSSTAMALQLMREKGMNRSESGQLGFSVLLFQDLAVIPALALVPLLAGSADEHFDWMKVGMKVLAFVGMLIGGRYLLRPVFRFIAASGVREVFTAATLLLVLGSALFMDALGLSMALGTFIAGVLLAESEYRHELETAIDPFKGLLLGLFFISVGMSLNLGVLYTHLLWVVISVVVLVAVKILVLYLLARLYGVRSSERMQFAGVLSQGGEFAFVLFSTASSQRLFQGDQMALLLVTVTLSMMTTPLLMKLVDKWLSRQFNGPEEEDEKPWVNDDKPQVIVVGFGRFGQVIGRLLMANKMRITVLERDISAVNLMRKYGYKVYYGDATQVDLLRSAGAEAAESIVITCNEPEDTMKLVEICQQHFPHLHILARARGRVEAHELLQAGVTQFSRETFSSALELGRKTLVTLGMHPHQAQRAQLHFRRLDMRMLRELIPMHADTVQISRAREARRELEEIFQREMQQERRQLDGWDEFE | 7.22 ± 0.56 | – | – | 6.39 ± 1.5 | – | – | 5.996 ± 0.021 | 13.6 ± 2 | 7.09 ± 1.1 | – | 5.87 ± 0.17 | 6.81 ± 1.1
